Measured values: the supplement of paper PMC11246515
± gives the standard deviation of the averaged measurements.

Test: total protein half-life in vivo (active degradation + dilution); higher = more stable protein
[1] = E. coli NCM3722 delta-clpP delta-lon delta-hslV, growth: N-lim chemostat, doubling time 6 h
[2] = E. coli NCM3722 delta-lon, growth: N-lim chemostat, doubling time 6 h
[3] = E. coli NCM3722 delta-smpB, growth: N-lim chemostat, doubling time 6 h
[4] = E. coli NCM3722 delta-clpP, growth: N-lim chemostat, doubling time 6 h
[5] = E. coli NCM3722 delta-hslV, growth: N-lim chemostat, doubling time 6 h
[6] = wild type E. coli NCM3722, growth: C-lim chemostat, doubling time 3 h
[7] = wild type E. coli NCM3722, growth: C-lim chemostat, doubling time 6 h
[8] = wild type E. coli NCM3722, growth: C-lim chemostat, doubling time 12 h
[9] = wild type E. coli NCM3722, growth: N-lim chemostat, doubling time 6 h
[10] = wild type E. coli NCM3722, growth: N-lim chemostat, doubling time 12 h
[11] = wild type E. coli NCM3722, growth: P-lim chemostat, doubling time 6 h
[12] = wild type E. coli NCM3722, growth: P-lim chemostat, doubling time 12 h

| Sequence | total protein half-life in vivo [1] [h] | total protein half-life in vivo [2] [h] | total protein half-life in vivo [3] [h] | total protein half-life in vivo [4] [h] | total protein half-life in vivo [5] [h] | total protein half-life in vivo [6] [h] | total protein half-life in vivo [7] [h] | total protein half-life in vivo [8] [h] | total protein half-life in vivo [9] [h] | total protein half-life in vivo [10] [h] | total protein half-life in vivo [11] [h] | total protein half-life in vivo [12] [h] |
| --- | --- | --- | --- | --- | --- | --- | --- | --- | --- | --- | --- | --- |
| MLLSIITVAFRNLEGIVKTHASLAHLAQVEDISFEWIVVDGGSNDGTREYLENLNGIFNLRFVSEPDNGIYDAMNKGIAMAQGKFALFLNSGDIFHQNAANFVRKLKMQKDNVMITGDALLDFGDGHKIKRSAKPGWYIYHSLPASHQAIFFPVSGLKKWRYDLEYKVSSDYALAAKMYKAGYAFKKLNGLVSEFSMGGVSTTNNMELCADAKKVQRQILHVPGFWAELSWHLRQRTTSKTKALYNKV | 4.85 ± 0.28 | 1.5 ± 0.23 | 0.818 ± 0.0095 |  |  |  |  |  |  |  |  |  |
| MKKTAAIISACMLTFALSACSGSNYVMHTNDGRTIVSDGKPQTDNDTGMISYKDANGNKQQINRTDVKEMVELDQ | 5.09 ± 0.4 |  | 5.68 ± 1.2 | 5.11 ± 0.78 | 5.48 ± 0.12 | 3.35 ± 0.3 | 5.25 ± 0.68 | 10.3 ± 0.96 | 5.312 ± 0.043 | 11.3 | 4.83 ± 0.12 | 11.1 ± 0.28 |
| MKNIVPDYRLDMVGEPCPYPAVATLEAMPQLKKGEILEVVSDCPQSINNIPLDARNHGYTVLDIQQDGPTIRYLIQK [P0AA31] |  |  |  |  |  | 3.04 ± 0.69 | 5.2 ± 0.98 | 6.03 |  |  |  |  |
| MYDYIIVGSGLFGAVCANELKKLNKKVLVIEKRNHIGGNAYTEDCEGIQIHKYGAHIFHTNDKYIWDYVNDLVEFNRFTNSPLAIYKDKLFNLPFNMNTFHQMWGVKDPQEAQNIINAQKKKYGDKVPENLEEQAISLVGEDLYQALIKGYTEKQWGRSAKELPAFIIKRIPVRFTFDNNYFSDRYQGIPVGGYTKLIEKMLEGVDVKLGIDFLKDKDSLASKAHRIIYTGPIDQYFDYRFGALEYRSLKFETERHEFPNFQGNAVINFTDANVPYTRIIEHKHFDYVETKHTVVTKEYPLEWKVGDEPYYPVNDNKNMELFKKYRELASREDKVIFGGRLAEYKYYDMHQVISAALYQVKNIMSTD | 6.0745 ± 0.0011 | 4.59 ± 0.33 | 2.83 ± 0.48 | 3.11 |  |  |  |  | 3.52 |  |  | 11.8 |
| MILTPIRRYGAMILMLLTLVFSSEVLAKTHTTTASQKSHLTKASNKQVSSKQEYSRNSAKSSSLPDLRKYPSGTPRKKAFLRTVMPYITSQNAAITAERNWLISKQYQGQWSPAERARLKDIAKRYKVKWSGNTRKIPWNTLLERVDIIPTSMVATMAAAESGWGTSKLARNNNNLFGMKCMKGRCTNAPGKVKGYSQFSSVKESVSAYVTNLNTHPAYSSFRKSRAQLRKADQEVTATAMIHKLKGYSTKGKSYNNYLFAMYQDNQRLIAAHM | 0.848 |  | 3.76 ± 0.26 |  |  | 1.22 | 2.47 ± 0.18 | 5.88 ± 0.34 |  |  |  |  |
| MSIQNEMPGYNEMNQYLNQQGTGLTPAEMHGLISGMICGGNDDSSWLPLLHDLTNEGMAFGHELAQALRKMHSATSDALQDDGFLFQLYLPDGDDVSVFDRADALAGWVNHFLLGLGVTQPKLDKVTGETGEAIDDLRNIAQLGYDEDEDQEELEMSLEEIIEYVRVAALLCHDTFTHPQPTAPEVQKPTLH [P0A8C4] | > 8 | 3.96 ± 0.8 | 3.76 ± 0.7 | 4.56 ± 0.28 | 3.63 ± 0.19 | 2.648 ± 0.026 | 5.18 ± 0.36 | 8.97 ± 0.18 | 3.86 ± 0.19 | 5.64 ± 1 | 5.02 ± 1.2 | 9.3 |
| MSYQYVNVVTINKVAVIEFNYGRKLNALSKVFIDDLMQALSDLNRPEIRCIILRAPSGSKVFSAGHDIHELPSGGRDPLSYDDPLRQITRMIQKFPKPIISMVEGSVWGGAFEMIMSSDLIIAASTSTFSMTPVNLGVPYNLVGIHNLTRDAGFHIVKELIFTASPITAQRALAVGILNHVVEVEELEDFTLQMAHHISEKAPLAIAVIKEELRVLGEAHTMNSDEFERIQGMRRAVYDSEDYQEGMNAFLEKRKPNFVGH | 5.13 |  |  |  |  | 2.48 | 2.79 | 6.64 |  |  |  |  |
| MWQAISRLLSEQLGEGEIELRNELPGGEVHAAWHLRYAGHDFFVKCDERELLPGFTAEADQLELLSRSKTVTVPKVWAVGADRDYSFLVMDYLPPRPLDAHSAFILGQQIARLHQWSDQPQFGLDFDNALSTTPQPNTWQRRWSTFFAEQRIGWQLELAAEKGIAFGNIDAIVEHIQQRLASHQPQPSLLHGDLWSGNCALGPDGPYIFDPACYWGDRECDLAMLPLHTEQPPQIYDGYQSVSPLPADFLERQPVYQLYTLLNRARLFGGQHLVIAQQSLDRLLAA | 4.14 ± 0.66 | 3.77 ± 0.099 | 3.3 ± 0.13 | 3.457 ± 0.023 | 3.84 ± 0.5 | 3.159 ± 0.0069 | 5.21 ± 0.11 | 9.56 ± 0.57 | 3.31 ± 0.31 | 5.08 ± 0.18 | 5.685 ± 0.017 | 11.2 ± 0.46 |
| MLPDSSVRLNKYISESGICSRREADRYIEQGNVFLNGKRATIGDQVKPGDVVKVNGQLIEPREAEDLVLIALNKPVGIVSTTEDGERDNIVDFVNHSKRVFPIGRLDKDSQGLIFLTNHGDLVNKILRAGNDHEKEYLVTVDKPITEEFIRGMSAGVPILGTVTKKCKVKKEAPFVFRITLVQGLNRQIRRMCEHFGYEVKKLERTRIMNVSLSGIPLGEWRDLTDDELIDLFKLIENSSSEVKPKAKAKPKTAGIKRPVVKMEKTAEKGGRPASNGKRFTSPGRKKKGR | 6.01 ± 1.2 | 5.61 ± 0.41 | 3.43 ± 0.087 | 3.751 ± 0.021 | 3.44 ± 0.14 | 2.2 ± 0.11 | 4.11 ± 0.4 | 5.93 ± 0.93 | 3.29 ± 0.094 | 5.37 ± 0.073 | 2.59 ± 0.18 | 5.07 ± 0.21 |
